# Reference: patent publication US20210380702A1 (Regeneron, published 2021)
# Where “and” joins values, the source holds several entries; their conditions need not be identical. Identical values can stand only once.
# B1: H1H8314N (antibody, V domains shown)
# VH: EVQLVESGGGVVRPGGSLRLSCAASGFTFDDYGMTWVRQAPGRGLEWVSGIHWHGKRTGYADSVKGRFTISRDNAKKSLYLQMNSLKGEDTALYHCVRGGMSTGDWFDPWGQGTLVIVSS
# VL: DIQMTQSPSSLSASLGDRVTITCRASQSINSYLNWYQQKPGKAPKLLIYVASSLQSGVPSRFSGSGSGTEFTLTISNLQPEDFATYYCQQSYSTPPITFGQGTRLEIK
# notes: human IgG1 Fc form (H1H prefix) of numerical identifier 8314
# B2: H1H9336P (antibody, human IgG1, V domains shown)
# VH: EVQLVESGGGLVQPGRSLRLSCAASGFTFDDFAMHWVRQAPGKGLEWVSGISWTGGNMDYANSVKGRFTISREDAKNSLYLQMNSLRAADTALYYCVKDIRGIVATGGAFDIWGRGTMVTVSS
# VL: DIQMTQSPSSLSASVGDRVTISCRASQTISTYLNWFQQKPGKAPKLLIYVVSSLQSGVPSRFSGSGSGTDFTLTISSLQPEDFATYYCQQSYSTPFTFGPGTKVDIK
# B3: H1H9387P2 (antibody, human IgG1, V domains shown)
# VH: QVQLVQSGAEVKKPGSSVKVSCKASGGTFNTYVLSWVRQAPGQGLEWMGEIIPILGAANYAQNFQGRVTFTTDESTNTAYMDLSSLRSEDTAVYYCARDRTSGGFDPWGQGTLVTVSS
# VL: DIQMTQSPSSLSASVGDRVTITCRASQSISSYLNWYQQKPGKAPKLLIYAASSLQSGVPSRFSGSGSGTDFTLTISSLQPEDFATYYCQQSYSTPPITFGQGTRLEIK
# B4: H1H9364P2 (antibody, human IgG1, V domains shown)
# VH: EVQLVESGGGLVQPGRSLRLSCAASGFTFDDYALHWVRQAPGKGLEWVSGISWTGGTIDYADSVKGRFTISRDNAKNSLYLQMSSLRTEDTAIYYCTRDIRGNWKYGGWFDPWGQGTLVTVSS
# VL: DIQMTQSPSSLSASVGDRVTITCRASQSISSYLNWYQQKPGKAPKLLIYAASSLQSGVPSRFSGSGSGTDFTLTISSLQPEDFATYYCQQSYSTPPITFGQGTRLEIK
# B5: H1H9345P2 (antibody, human IgG1, V domains shown)
# VH: EVQLVESGGGLVQPGGSLRLSCAASGFTISTNYMNWVRQAPGKGLEWVAVIYSSGSTYYIDSVKGRFTISRLTSKNTVYLQMSSLNSEDTAVYYCARGIRGFDIWGQGTMVTVSS
# VL: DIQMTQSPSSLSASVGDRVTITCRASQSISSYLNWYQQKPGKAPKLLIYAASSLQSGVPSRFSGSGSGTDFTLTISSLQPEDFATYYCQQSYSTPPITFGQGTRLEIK
# B6: H1H9382P2 (antibody, human IgG1, V domains shown)
# VH: EVQLVESGGGLVQPGGSLRLSCAASGFTVGTNFMNWVRQAPGKGLEWVSAIYSGGTANYADSVKGRFTISRDTSRNTLYLQMNSLRTEDTAVYYCARGGGMDVWGQGTTVTVSS
# VL: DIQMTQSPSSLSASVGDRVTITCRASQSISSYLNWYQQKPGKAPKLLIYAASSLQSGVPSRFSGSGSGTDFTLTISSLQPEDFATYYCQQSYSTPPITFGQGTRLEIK
# B7: H1H9354P2 (antibody, human IgG1, V domains shown)
# VH: EVQLVESGGGLVQPGGSLRLSCEASGFTVGVNHMNWVRQAPGKGLEWVSVIFSSGRTFYGDYVKGRLTIFRQTSQNTVYLQMNSLRSEDTAIYYCARGIGGLDIWGRGTMVTVSS
# VL: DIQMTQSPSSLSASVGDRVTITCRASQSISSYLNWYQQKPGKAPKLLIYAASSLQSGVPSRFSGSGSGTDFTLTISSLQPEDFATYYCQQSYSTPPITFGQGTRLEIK
# B8: H1H9396P2 (antibody, human IgG1, V domains shown)
# VH: QVQLVQSGAEVEKPGASVKVSCKASGYIFTHYGISWVRQAPGQGLEWVGWISPYNGYTDYAQKLQGRVTLTTDTSTTTAYMELRNLRSDDTAMYYCSRGRGPYWSFDLWGRGTLVTVSS
# VL: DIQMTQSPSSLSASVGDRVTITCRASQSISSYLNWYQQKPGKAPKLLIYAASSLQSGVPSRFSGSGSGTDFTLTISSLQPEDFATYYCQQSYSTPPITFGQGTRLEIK
# B9: H1H8323N (antibody, V domains shown)
# VH: QVQLVQSGAEVKMPGSSVRVSCKASGGIFSSSTISWVRQAPGQGLEWMGEIIPVFGTVNYAQKFQDRVIFTADESTTTAYMELSSLKSGDTAVYFCARNWGLGSFYIWGQGTMVTVSS
# VL: EIVLTQSPGTLSLSPGERATLSCRASQSFNFNYLAWYQQKPGQAPRLLIYGASSRATGIPDRFSGSGSGTDFTLTINRLEPEDFGVFYCQQYESAPWTFGQGTKVEIK
# notes: human IgG1 Fc form (H1H prefix) of numerical identifier 8323
# Target: full length human PD-L1 (amino acids 1 to 290 of NP_054862.1) on transfected cells (human, UniProt Q9NZQ7 19-290)
# Sequence (Q9NZQ7 19-290 limits assumed): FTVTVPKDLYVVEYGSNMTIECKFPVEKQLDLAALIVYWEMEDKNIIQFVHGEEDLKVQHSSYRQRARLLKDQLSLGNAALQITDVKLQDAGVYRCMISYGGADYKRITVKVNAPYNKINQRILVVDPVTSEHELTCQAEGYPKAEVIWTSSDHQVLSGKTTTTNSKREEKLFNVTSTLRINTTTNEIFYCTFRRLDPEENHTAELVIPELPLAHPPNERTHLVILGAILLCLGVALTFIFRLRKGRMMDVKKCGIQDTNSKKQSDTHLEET
# Experiment: cell-based or functional assay
Concentration [M] of Antibody at 125% activation,Emax mean [%] @ 100 nM,Binder
6.57e-11 M,148%,B1

# Target: T1, recombinant human PD-L1 (amino acids 19-239 of NP_054862.1) with a C-terminal myc-myc-hexahistidine tag (human)
# T1 construct: also called hPD-L1-MMH; hPD-L1-MMH Monomer
# T1 sequence (chain, as listed by the source limits assumed): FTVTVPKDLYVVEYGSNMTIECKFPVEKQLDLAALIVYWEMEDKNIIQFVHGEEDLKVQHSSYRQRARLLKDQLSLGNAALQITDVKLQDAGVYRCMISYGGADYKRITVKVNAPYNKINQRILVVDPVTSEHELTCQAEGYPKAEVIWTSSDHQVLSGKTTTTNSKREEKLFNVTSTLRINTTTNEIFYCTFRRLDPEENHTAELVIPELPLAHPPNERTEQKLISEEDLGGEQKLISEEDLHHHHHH
# Experiment: SPR (Biacore), mAb captured, 37C
# Protocol: (§1) Binding association and dissociation rate constants (kₐ and kd, respectively), equilibrium dissociation constants and dissociation half-lives (KD and t_{1/2}, respectively) of antigen binding to purified anti-PD-L1 monoclonal antibodies were determined using a real-time surface plasmon resonance biosensor assay on a Biacore 4000 instrument. The Biacore sensor surface was either derivatized with polyclonal rabbit anti-mouse antibody (GE, #BR-1008-38) or with monoclonal mouse anti-human Fc antibody (GE, #BR-1008-39) to capture approximately 200-300 RUs of anti-PD-L1 monoclonal antibodies, expressed with either a mouse Fc or with human Fc, respectively. […] Different concentrations of PD-L1 reagents were injected over the anti-PD-L1 monoclonal antibody captured surface at a flow rate of 30 μL/min. The binding of the PD-L1 reagents to the captured monoclonal antibodies was monitored for 3 to 4 minutes while the dissociation of antibody bound PD-L1 reagents was monitored for 10 minutes in HBST running buffer (0.01 M HEPES pH 7.4, 0.15 M NaCl, 3 mM EDTA, 0.05% v/v Surfactant tween-20). Experiments were performed at either 25° C. or 37° C. Kinetic association (kₐ) and dissociation (kd) rate constants were determined by processing and fitting the data to a 1:1 binding model using Scrubber 2.0c curve fitting software. Binding dissociation equilibrium constants (KD) and dissociative half-lives (t_{1/2}) were then calculated from the kinetic rate constants as: KD (M)=kd/kₐ and t_{1/2} (min)=[In2/(60*kd)].
Kd,koff,kon,t1/2,Binder
0.733 nM,0.000788 s⁻¹,1.07e+06 M⁻¹ s⁻¹,15 min,B2
39.1 nM,0.137 s⁻¹,3.49e+06 M⁻¹ s⁻¹,0.08 min,B3
0.417 nM,0.000563 s⁻¹,1.35e+06 M⁻¹ s⁻¹,21 min,B4
197 nM,0.034 s⁻¹,172000 M⁻¹ s⁻¹,0.3 min,B5
107 nM,0.0107 s⁻¹,99700 M⁻¹ s⁻¹,1.1 min,B6
15.4 nM,0.00114 s⁻¹,73900 M⁻¹ s⁻¹,10 min,B7
33 nM,0.0113 s⁻¹,344000 M⁻¹ s⁻¹,1 min,B8

# Target: T2, Human PD-L1 Dimer (human, UniProt Q9NZQ7 19-239)
# T2 construct: also called hPD-L1 dimer; hPD-L1-hFc
# T2 sequence (Q9NZQ7 19-239): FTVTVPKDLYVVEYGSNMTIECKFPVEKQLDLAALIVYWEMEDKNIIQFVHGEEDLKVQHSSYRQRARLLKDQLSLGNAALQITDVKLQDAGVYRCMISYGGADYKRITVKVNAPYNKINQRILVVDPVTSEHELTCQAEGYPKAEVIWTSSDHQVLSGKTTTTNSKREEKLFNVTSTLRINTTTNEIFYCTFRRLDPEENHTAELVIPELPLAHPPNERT
# Experiment: SPR (Biacore), mAb captured, 37C
# Protocol: as §1
Kd,koff,kon,t1/2,Binder
0.0302 nM,8.31e-05 s⁻¹,2.75e+06 M⁻¹ s⁻¹,139 min,B2
0.0639 nM,0.000392 s⁻¹,6.12e+06 M⁻¹ s⁻¹,29 min,B3
0.0208 nM,6.96e-05 s⁻¹,3.34e+06 M⁻¹ s⁻¹,166 min,B4
0.297 nM,0.000203 s⁻¹,682000 M⁻¹ s⁻¹,57 min,B5
0.278 nM,0.000137 s⁻¹,492000 M⁻¹ s⁻¹,84 min,B6
0.317 nM,0.000145 s⁻¹,456000 M⁻¹ s⁻¹,80 min,B7
0.237 nM,0.000258 s⁻¹,1.09e+06 M⁻¹ s⁻¹,45 min,B8

# Target: T3, recombinant cynomolgus monkey PD-L1 with a C-terminal myc-myc-hexahistidine tag (cynomolgus monkey (Macaca fascicularis))
# T3 construct: also called MfPD-L1-MMH; MfPD-L1-MMH Monomer
# T3 sequence (chain, as listed by the source limits assumed): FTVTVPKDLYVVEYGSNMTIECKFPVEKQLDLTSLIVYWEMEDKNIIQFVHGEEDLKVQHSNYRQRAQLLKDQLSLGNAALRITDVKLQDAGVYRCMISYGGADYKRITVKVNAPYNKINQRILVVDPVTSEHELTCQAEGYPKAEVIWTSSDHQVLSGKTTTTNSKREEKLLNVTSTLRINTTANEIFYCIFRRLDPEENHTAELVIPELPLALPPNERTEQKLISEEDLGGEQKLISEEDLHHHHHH
# Experiment: SPR (Biacore), mAb captured, 37C
# Protocol: as §1
Kd,koff,kon,t1/2,Binder
1.38 nM,0.00125 s⁻¹,909000 M⁻¹ s⁻¹,9.2 min,B2
48.9 nM,0.157 s⁻¹,3.2e+06 M⁻¹ s⁻¹,0.07 min,B3
0.566 nM,0.000633 s⁻¹,1.12e+06 M⁻¹ s⁻¹,18 min,B4
121 nM,0.0197 s⁻¹,164000 M⁻¹ s⁻¹,0.6 min,B5
189 nM,0.0245 s⁻¹,130000 M⁻¹ s⁻¹,0.5 min,B6
9.82 nM,0.000844 s⁻¹,85900 M⁻¹ s⁻¹,14 min,B7
30.5 nM,0.012 s⁻¹,394000 M⁻¹ s⁻¹,1 min,B8

# Target: T4, recombinant cynomolgus monkey PD-L1 expressed with a C-terminal mouse IgG2a Fc tag (cynomolgus monkey)
# T4 construct: also called MfPD-L1-mFc; monkey PD-L1-mFc
# T4 sequence (chain, as listed by the source limits assumed): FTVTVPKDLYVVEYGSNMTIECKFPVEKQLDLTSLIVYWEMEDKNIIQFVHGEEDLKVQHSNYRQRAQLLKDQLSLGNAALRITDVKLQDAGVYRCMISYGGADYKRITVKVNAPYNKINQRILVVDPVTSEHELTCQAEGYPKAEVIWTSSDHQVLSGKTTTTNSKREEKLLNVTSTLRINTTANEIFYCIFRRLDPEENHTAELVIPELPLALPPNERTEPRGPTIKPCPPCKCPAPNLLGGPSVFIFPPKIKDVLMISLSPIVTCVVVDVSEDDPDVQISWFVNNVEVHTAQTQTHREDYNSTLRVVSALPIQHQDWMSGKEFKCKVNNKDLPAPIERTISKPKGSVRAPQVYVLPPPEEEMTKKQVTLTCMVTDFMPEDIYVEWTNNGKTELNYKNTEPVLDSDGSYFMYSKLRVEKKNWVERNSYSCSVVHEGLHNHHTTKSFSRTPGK
# Experiment: SPR (Biacore), mAb captured, 37C
# Protocol: as §1
Kd,koff,kon,t1/2,Binder
0.0333 nM,9.6e-05 s⁻¹,2.89e+06 M⁻¹ s⁻¹,120 min,B1
0.0451 nM,0.000135 s⁻¹,2.99e+06 M⁻¹ s⁻¹,86 min,B9

# Target: T2, Human PD-L1 Dimer
# Experiment: SPR (Biacore), mAb captured, 25C
# Protocol: as §1
Kd,koff,kon,t1/2,Binder
0.0786 nM,0.000109 s⁻¹,1.38e+06 M⁻¹ s⁻¹,106 min,B2
0.0427 nM,0.000217 s⁻¹,5.07e+06 M⁻¹ s⁻¹,53 min,B3
0.0437 nM,0.000106 s⁻¹,2.42e+06 M⁻¹ s⁻¹,109 min,B4
0.474 nM,0.000237 s⁻¹,500000 M⁻¹ s⁻¹,49 min,B5
0.663 nM,0.000148 s⁻¹,223000 M⁻¹ s⁻¹,78 min,B6
0.689 nM,0.000116 s⁻¹,168000 M⁻¹ s⁻¹,100 min,B7
0.245 nM,0.00019 s⁻¹,776000 M⁻¹ s⁻¹,61 min,B8

# Target: T3, recombinant cynomolgus monkey PD-L1 …
# Experiment: SPR (Biacore), mAb captured, 25C
# Protocol: as §1
Kd,koff,kon,t1/2,Binder
0.876 nM,0.000594 s⁻¹,679000 M⁻¹ s⁻¹,19 min,B2
25.5 nM,0.0604 s⁻¹,2.37e+06 M⁻¹ s⁻¹,0.2 min,B3
0.412 nM,0.000312 s⁻¹,757000 M⁻¹ s⁻¹,37 min,B4
77.3 nM,0.0085 s⁻¹,110000 M⁻¹ s⁻¹,1.4 min,B5
157 nM,0.0129 s⁻¹,82200 M⁻¹ s⁻¹,0.9 min,B6
6.64 nM,0.000305 s⁻¹,46000 M⁻¹ s⁻¹,38 min,B7
12.2 nM,0.00252 s⁻¹,206000 M⁻¹ s⁻¹,4.6 min,B8

# Target: T5, recombinant cynomolgus monkey PD-L1 with a C-terminal mouse IgG2a Fc tag (cynomolgus monkey (Macaca fascicularis))
# T5 construct: also called MfPD-L1-mFc; monkey PD-L1-mFc
# Experiment: SPR (Biacore), mAb captured, 25C
# Protocol: as §1
Kd,koff,kon,t1/2,Binder
0.0622 nM,6.16e-05 s⁻¹,990000 M⁻¹ s⁻¹,188 min,B2
0.0452 nM and 0.073 nM,0.000161 s⁻¹ and 0.000212 s⁻¹,3.55e+06 M⁻¹ s⁻¹ and 2.9e+06 M⁻¹ s⁻¹,72 min and 55 min,B3
0.0587 nM and 0.0462 nM,7.75e-05 s⁻¹ and 5.8e-05 s⁻¹,1.32e+06 M⁻¹ s⁻¹ and 1.25e+06 M⁻¹ s⁻¹,149 min and 199 min,B4
0.512 nM,0.000151 s⁻¹,296000 M⁻¹ s⁻¹,76 min,B5
0.626 nM,0.000133 s⁻¹,213000 M⁻¹ s⁻¹,87 min,B6
0.447 nM,9.14e-05 s⁻¹,205000 M⁻¹ s⁻¹,126 min,B7
0.225 nM,0.000188 s⁻¹,837000 M⁻¹ s⁻¹,61 min,B8
